Laboratory results from patent publication US11426422B2, “SHP2 inhibitors and methods of use thereof” (Research Development Foundation, priority 2018, dated 2022).
Where no end group is shown, it is not given here. [ ]: non-standard residue; d: D form. pY = N[C@@H](Cc1ccc(OP(=O)(O)O)cc1)C(=O)O; pS = N[C@@H](COP(=O)(O)O)C(=O)O

Assays:
AP2M1 (residues 160-435) = target: T1, AP2M1 (residues 160-435) (Homo sapiens, UniProt Q96CW1); experiment: in vitro peptide pull-down of AP2M1 with IRS1 peptides; format: binding; details: peptide beads pull-down, SDS-PAGE, Coomassie
T1 construct: The AP2M1 fragment (residues 160-435) was cloned into a modified pET28a; His6 (N, cleaved yes); made in house; host or cells: E. coli BL21(DE3)
T1 sequence (Q96CW1 160-435): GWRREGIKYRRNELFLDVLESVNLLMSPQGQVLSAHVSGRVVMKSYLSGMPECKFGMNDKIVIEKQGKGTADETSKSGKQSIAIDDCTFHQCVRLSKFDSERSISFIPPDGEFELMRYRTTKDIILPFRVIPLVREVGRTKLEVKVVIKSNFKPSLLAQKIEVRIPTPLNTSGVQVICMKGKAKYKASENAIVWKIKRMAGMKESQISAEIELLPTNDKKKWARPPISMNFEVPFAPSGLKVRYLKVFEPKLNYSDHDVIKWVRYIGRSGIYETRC
Protocol: FIGS. 2A-I. The MAPK pathway and SHP2 promote insulin-activated IR endocytosis. (FIG. 2A) HepG2 cells expressing IR-GFP WT were starved, treated with the indicated inhibitors for 2 h, treated without or with 100 nM insulin for 20 min, and stained with anti-GFP (IR; green) and DAPI (blue). See also FIG. 7A for representative images. Quantification of the ratios of PM and IC IR-GFP signals of cells was shown (mean±SD; *p<0.0001). (FIG. 2B) Binding of IRS1 peptides to AP2M1 (residues 160-435). Input and proteins bound to IRS1-peptide beads were analyzed by SDS-PAGE and stained with Coomassie (CBB). The relative band intensities are shown below (mean±SD; n=4 independent experiments). (FIG. 2C) ITC analysis of binding between IRS1 peptides and AP2M1 (residue 160-435), with the Kd indicated. (FIG. 2D) The IRS1 peptides were incubated with active SHP2 for the indicated durations, spotted onto membranes, and detected with the anti-pY612-IRS1 antibody. (FIG. 2E) Quantification of the relative SHP2 activity in FIG. 2D (mean±SD; n=4 independent experiments; *p<0.0001). (FIG. 2F) Model of the regulation of insulin-activated IR endocytosis by a phosphorylation switch on IRS1/2. Insulin-bound IR phosphorylates itself and IRS1/2, and activates the PI3K-AKT and MAPK pathways. SHP2 acts upstream of RAS-RAF and promotes the activation of MAPK pathway. p31^comet binds to the IR-bound MAD2 and blocks IR-AP2 association to prevent premature IR endocytosis. In feedback regulation, activated ERK1/2 phosphorylate S616 and other sites on IRS1. […]
For GST pull-down assays of in vitro translated (IVT) IRS1 proteins, beads bound to GST-AP2M1 or GST were incubated with IVT products diluted in the cell lysis buffer at 4° C. for 2 h. After incubation and washing, proteins bound to beads were eluted with the SDS loading buffer, resolved with SDS-PAGE, and detected with Coomassie staining or immunoblotting with the appropriate antibodies. […]

SHP2 = target: T2, SHP2 (Homo sapiens, UniProt Q06124); experiment: in vitro phosphatase assay, dephosphorylation of IRS1 peptides by active SHP2; format: biochemical; details: doubly versus singly phosphorylated IRS1 peptide; active SHP2 2.9 μM, peptide 2.6 mM, 37° C.
T2 construct: purchased SignalChem
T2 sequence (Q06124 1-593): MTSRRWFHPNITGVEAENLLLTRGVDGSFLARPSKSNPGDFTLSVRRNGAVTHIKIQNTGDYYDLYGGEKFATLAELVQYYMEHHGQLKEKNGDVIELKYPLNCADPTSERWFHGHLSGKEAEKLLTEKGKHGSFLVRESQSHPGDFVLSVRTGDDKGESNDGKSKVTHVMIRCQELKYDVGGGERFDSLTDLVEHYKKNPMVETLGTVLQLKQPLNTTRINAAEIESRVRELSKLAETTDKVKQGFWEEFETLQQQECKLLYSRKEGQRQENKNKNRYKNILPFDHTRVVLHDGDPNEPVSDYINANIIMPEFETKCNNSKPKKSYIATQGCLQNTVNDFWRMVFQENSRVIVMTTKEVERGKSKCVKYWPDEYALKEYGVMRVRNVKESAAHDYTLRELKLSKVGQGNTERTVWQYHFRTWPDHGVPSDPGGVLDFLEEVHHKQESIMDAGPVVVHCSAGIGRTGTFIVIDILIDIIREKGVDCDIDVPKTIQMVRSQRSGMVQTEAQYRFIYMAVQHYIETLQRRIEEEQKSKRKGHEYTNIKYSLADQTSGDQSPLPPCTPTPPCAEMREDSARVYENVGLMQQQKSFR
Source text: To assess whether serine phosphorylation (pS616) of the YMPMS motif (SEQ ID NO:13) promotes dephosphorylation of pY612 by SHP2, its dephosphorylation kinetics were examined. […] Decreased IRS1 pS616 has been correlated with increased pY608 in vivo (Bard-Chapeau et al., 2005), and therefore, aside from directly augmenting the IRS1-AP2M1 interaction, ERK1/2-dependent phosphorylation of IRS1 indirectly promotes AP2M1 binding through enhancing the dephosphorylation of IRS1 by SHP2. Consistent with a role of ERK1/2-dependent phosphorylation of IRS1 in IR endocytosis, expression of the RNAi-resistant IRS1 phospho-mimicking mutant (3SD), but not the phospho-deficient mutant (3SA), restored IR endocytosis in 293FT cells depleted of IRS1/2 (FIG. 1G and FIG. 6E).
Active SHP2 (2.9 μM, SignalChem) diluted in the phosphatase dilution buffer (50 mM imidazole, pH 7.2, 0.2% 2-mercaptoethanol, 65 ng/μl BSA) was incubated with IRS1 peptides (2.6 mM) at 37° C. for the indicated time points. Two microliters of reaction products were spotted onto 0.45 m nitrocellulose membrane (BioRad) and dried completely. The membrane was blocked with 5% nonfat milk in TBS for 1 h, and washed once with TBS-T (0.02% Tween 20). […] The membranes were scanned with the Odyssey Infrared Imaging System (LI-COR, Lincoln, Nebr.) for quantification.

pYMPMpS: doubly phosphorylated IRS1 peptide CHTDDGpYMPMpSPGVA (SEQ ID NO:16) (CHTDDG[pY]MPM[pS]PGVA)
binding to AP2M1 (AP2M1 (residues 160-435)): abolished AP2M1 binding | dephosphorylation of pY612 by SHP2 (SHP2): promoted pY612 dephosphorylation by SHP2
